What was measured:
[1] = in vivo; settings: male, NOD-SCID, mouse, iv, 16.8 pmol, total radioactivity
Method: (§1) The animal experiments were planned and performed in accordance with the national legislation on the protection of laboratory animals, and the study plans were approved by the local committee for animal research ethics. Groups of 3-4 mice were used per data point. Biodistribution studies were performed on female immunocompetent NMRI mice (weight: 30 ± 2 g), female Balb/c nu/nu (inoculated 10 million PC-3 cells/mouse 21 days before the experiment, weight 17 ± 2 g), and male inbred immunodeficient NOD-SCID mice (5 million PC-3 cells/mouse, 35 days before the experiment, 31 ± 2 g).
(§2) Tumor targeting specificity and biodistribution over time were studied on PC-3 xenografted female Balb/c nu/nu and male NOD-SCID mice, respectively. […] An additional group of animals was coinjected with an excess of nonlabeled peptide (20 nmol). The mice were sacrificed at 3 h pi by intraperitoneal injection of Ketalar-Rompun solution (10 mg/mL Ketalar and 1 mg/mL Rompun; 20 μL/g body weight). […] The mice were euthanized at 3 and 24 h pi by cervical dislocation. Tumors, blood, and other organs of interest were collected, weighed, and measured on radioactivity content in a gamma-counter. […] The organ uptake values were expressed as a percentage of injected dose per gram of tissue (% ID/g), except for the gastrointestinal tract and the remaining carcass, which were calculated as % ID per whole sample.

[2] = in vivo; design: species or system mouse; settings: female, NMRI, mouse, in vivo, iv, 45 pmol, total radioactivity
Method: (§3) The animal experiments were planned and performed in accordance with the national legislation on the protection of laboratory animals, and the study plans were approved by the local committee for animal research ethics. Groups of 3-4 mice were used per data point. Biodistribution studies were performed on female immunocompetent NMRI mice (weight: 30 ± 2 g), female Balb/c nu/nu (inoculated 10 million PC-3 cells/mouse 21 days before the experiment, weight 17 ± 2 g), and male inbred immunodeficient NOD-SCID mice (5 million PC-3 cells/mouse, 35 days before the experiment, 31 ± 2 g). […] The injected radioactivity was adjusted to 30 kBq per animal. […] The mice were euthanized at 30 min pi by intraperitoneal injection of Ketalar-Rompun solution (10 mg/mL Ketalar and 1 mg/mL Rompun; 20 μL/g body weight). Blood samples were collected by cardiac puncture. Lung, liver, spleen, pancreas, stomach, small intestines, kidneys, muscle, bone, and the rest of intestines with their content were collected. The organs were weighed and their radioactivity content was measured in a gamma-counter. The data were corrected for background radiation. The organ uptake values were expressed as a percentage of injected dose per gram of tissue (% ID/g), except for the gastrointestinal tract and the remaining carcass, which were calculated as % ID per whole sample.

[3] = tested on: murine GRPRs; assay: in vivo; design: species or system mouse; settings: female NMRI mice, 30 min pi, 45 pmol, coinjected 20 nmol unlabeled peptide
Method: as §3

[4] = tested on: PC-3 xenografts; assay: In vivo binding specificity in PC-3 xenografted Balb/c nu/nu mice; design: species or system mouse; settings: female Balb/c nu/nu mice with subcutaneous PC-3 tumors, 3 h pi, 45 pmol, coinjected 20 nmol
Method: as §1, §2

[5] = Labeling stability: EDTA challenge and PBS, analysed by ITLC; type: physicochemical; settings: chemical (label) stability, ITLC eluted with citric acid 0.2 M pH 2.0, average ± SD
Method: Radiolabeling with ^57Co was performed using 3.8–10 nmol (aq. 1 nmol/μL) of NOTA-PEG2-RM26 buffered with 80 μL ammonium acetate (0.2 M, pH 5.5). The mixture was incubated with ^57Co cobalt chloride (10–50 MBq) for 30 min at 60°C. For ^55Co labeling, 1.3 nmol of NOTA-PEG2-RM26 buffered with 80 μL ammonium acetate (0.2 M, pH 5.5) was heated by microwave irradiation for 1 min at 850 W in a sealed vial using a conventional microwave oven (Samsung MW82N-B). […] Labeling yield, radiochemical purity, and in vitro stability were analyzed using instant thin-layer chromatography (ITLC) strips (Agilent Technologies) eluted with citric acid (0.2 M, pH 2.0). In this system, free ^57/55Co migrates with the eluent front (Rf = 1.0) and the radiolabeled construct stays on the application point (Rf = 0.0). The system was previously validated by sodium dodecyl sulfate polyacrylamide gel electrophoresis (SDS-PAGE) and radio-HPLC [7, 8].

[6] = tested on: PC-3 cells; assay: Cellular processing (binding and internalization, acid wash) by PC-3 cells; type: cell-based, human; settings: 1 nM, 37°C, 24 h incubation, 3 dishes
Method: The cells were cultured in RPMI-1640 media supplemented with 10% fetal calf serum, PEST (penicillin 100 IU/mL, streptomycin 100 μg/mL), and 2 mM L-glutamine (all from Biochrom AG, Berlin, Germany). This medium is referred to as complete medium in the text. Trypsin-EDTA (0.05% trypsin, 0.02% EDTA in buffer; Biochrom AG) was used for cell detachment. All in vitro experiments were performed in triplicate. […] At predetermined time points (1, 2, 4, 8, and 24 h after the start of incubation) the medium from 3 dishes was discarded and the cells were washed with ice-cold serum-free medium. The membrane-bound and internalized radioactivity were collected using the acid wash method described earlier.

CC(C)C[C@H](NC(=O)C[C@H](O)[C@H](CC(C)C)NC(=O)[C@H](Cc1c[nH]cn1)NC(=O)CNC(=O)[C@@H](NC(=O)[C@H](C)NC(=O)[C@H](Cc1c[nH]c2ccccc12)NC(=O)[C@H](CCC(N)=O)NC(=O)[C@@H](Cc1ccccc1)NC(=O)COCCOCCNC(=O)CN1CCN(CC(=O)O)CCN(CC(=O)O)CC1)C(C)C)C(N)=O [^57Co-NOTA-PEG2-RM26]
tissue uptake at 3 h [1]: 0.05 ± 0.02 %ID/g
tissue uptake at 0.5 h ([2]; kidney retention): 6 ± 2 %ID/g
tissue uptake at 0.5 h ([2]; liver uptake): 0.65 ± 0.05 %ID/g
Accumulated radioactivity in receptor-positive organs (pancreas, small intestine, stomach) on coinjection of unlabeled peptide [3]: significantly lower
Tumor uptake and uptake in GRPR-expressing organs on coinjection of excess unlabeled peptide [4]: inhibited
Release in the presence of excess EDTA ([5]; 1000-fold molar excess of EDTA disodium salt, 1 h, room temperature): 0.7 ± 0.2%
Release in PBS ([5]; PBS, 1 h incubation at room temperature): 0.07 ± 0.11%
Internalized fraction of cell-associated radioactivity [6]: 12%

From publication PMC5612608 (Contrast Media & Molecular Imaging, 2017)
